The target of assay [1] is T1, sEGFR-MMB (dimeric soluble EGFR ectodomain mimetibody) (human).
T1 construct: also called sEGFR mimetibody; sEGFR-Fc
Nature of the assay: phage ELISA, coated sEGFR-MMB. Background: In an ELISA, binding on a coated surface is turned into a signal by an enzyme label.

Assay [2] deals with T2, Human extracellular EGFR-His6 (sEGFR-His6) (human, UniProt P00533 25-645).
T2 construct: Monomeric, expressed in HEK293E, glycosylated; also called sEGFR-6×His; monomeric sEGFR
Nature of the assay: phage ELISA, coated sEGFR-His6.

Assay [3] has as its target T1, sEGFR-MMB (dimeric soluble EGFR …). Nature of the assay: phage ELISA on coated sEGFR-MMB, chemiluminescence; background typically <200 units.
The next assay concerns the target T3, Control-MMB (CNTO 360) (Homo sapiens (Human), UniProt P0DOX5 111-449 = IgG part).
T3 construct: Described as human IgG1 heavy chain dimer absent the variable and most of the CH1 domains; also called blank mimetibody scaffold protein
As to the kind of experiment: phage ELISA on coated Control-MMB [A].

In a further assay the target is T4, Streptavidin.
T4 construct: also called Streptavidin alone; SA
As to the kind of experiment: phage ELISA on streptavidin alone [C].

The next assay deals with T5, biotinylated sEGFR-His6 (human, UniProt P00533 25-645, biotinylated (sites not given)).
T5 construct: Captured on streptavidin-coated wells in the ELISA; also called b-sEGFR-His; b-sEGFR-His6
As to the kind of experiment: phage ELISA, biotinylated receptor captured on streptavidin.

In a further assay the target is T6, biotinylated sEGFR-MMB (human, biotinylated with sulfo-NHS-LC-biotin (sites not given)).
T6 construct: Captured on streptavidin-coated wells in the ELISA; also called b-sEGFR-MMB; b-sEGFR MMB
The assay is described as above.

In a further assay the target is T7, b-sEGFR-strep (human, UniProt P00533, biotinylated, sites not given).
T7 construct: soluble ectodomain, monomeric, strep II tag; captured on streptavidin-coated wells; also called strepII-tagged sEGFR; strep II-tagged sEGFR purchased from Research Diagnostics
The assay is described as above.

The target of assay [4] is T1, sEGFR-MMB (dimeric soluble EGFR …). Nature of the assay: phage ELISA on coated sEGFR-MMB; second bar with EGF 10 ug/ml as competitor.
For assay [5] the target is unchanged. As to the kind of experiment: phage ELISA on coated sEGFR-MMB, chemiluminescence; background typically <200 units. This is another data set of the same source.

Like-named read-outs stand apart in the source and are kept apart here. Bridges are numbered along the chain shown (N, C = ends). Where no end group is shown, it is not given here.

T1 sequence (chain, as listed by the source limits assumed): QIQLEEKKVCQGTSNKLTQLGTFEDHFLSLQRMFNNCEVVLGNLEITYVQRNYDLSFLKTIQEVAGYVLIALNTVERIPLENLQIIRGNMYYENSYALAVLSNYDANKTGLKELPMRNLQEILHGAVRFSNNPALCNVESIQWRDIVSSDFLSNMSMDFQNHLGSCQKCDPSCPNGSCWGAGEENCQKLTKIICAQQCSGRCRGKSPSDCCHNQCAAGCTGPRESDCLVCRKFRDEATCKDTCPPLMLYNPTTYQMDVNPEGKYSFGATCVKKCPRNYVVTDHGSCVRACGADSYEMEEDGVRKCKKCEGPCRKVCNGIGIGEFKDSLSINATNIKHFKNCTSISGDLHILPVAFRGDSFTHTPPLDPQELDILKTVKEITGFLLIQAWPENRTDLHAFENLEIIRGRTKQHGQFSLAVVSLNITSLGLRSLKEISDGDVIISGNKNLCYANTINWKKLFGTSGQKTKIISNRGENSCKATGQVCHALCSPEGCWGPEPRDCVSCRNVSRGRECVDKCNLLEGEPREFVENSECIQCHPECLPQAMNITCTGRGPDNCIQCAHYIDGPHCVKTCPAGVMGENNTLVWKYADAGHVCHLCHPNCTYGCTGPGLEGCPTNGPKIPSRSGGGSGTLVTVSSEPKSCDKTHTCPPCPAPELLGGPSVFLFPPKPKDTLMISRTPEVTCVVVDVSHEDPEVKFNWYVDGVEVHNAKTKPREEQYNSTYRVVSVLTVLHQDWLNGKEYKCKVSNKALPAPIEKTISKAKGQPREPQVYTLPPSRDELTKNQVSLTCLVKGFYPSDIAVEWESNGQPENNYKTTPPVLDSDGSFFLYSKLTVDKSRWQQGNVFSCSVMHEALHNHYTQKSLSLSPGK
T6 sequence (chain, as listed by the source limits assumed): as above

B1: phage P194 (pIII CNL1-11) (peptide)
chain: AGSECFPLAPDWLSCILGG
notes: Tested as whole phage displaying the peptide on pIII; also called PHPEP194; not shown: M13 phage coat protein pIII, mature (TVESC...)
For B1, the binding result in [1] and in assay [2] was “binds” each time.

B2: S20 library phage hit SEQ ID NO: 47 (peptide)
chain: GGGSVCVGTAFPGWMVCGP
notes: Tested as whole phage, pIX phagemid display
With B2, the ELISA signal in assay [3] is 4770 units.

B3: phage P176 (pIX S20) (peptide)
chain: GGGKTCVSTTFDLWFVCFA
modifications: disulfide 6-17; also: displayed on whole phage via pIX
notes: Tested as whole phage, pIX phagemid display; also called PP176
In [3], B3 came in with an ELISA signal of 37400 units. The binding result with Control-MMB (CNTO 360) and with Streptavidin was “no binding” each time.

B4: S20 library phage hit SEQ ID NO: 46 (peptide)
chain: GGGYICTPSDIDSWYICYL
notes: as for B2
Consider B4, for which, in assay [3], the ELISA signal came to 6620 units.

B5: phage P193 (pIII CNL1-11) (peptide)
chain: AGSYYWGYTVDIRRGG
notes: Tested as whole phage displaying the peptide on pIII; also called PHPEP193; not shown: M13 phage coat protein pIII, mature (TVESC...)
On to B5, for which the binding result in assay [1] is on record as “binds”.

B6: phage P143 (pIII CNL5) (peptide)
chain: AGVLCSNFYHPLCHSGG
notes: Tested as whole phage displaying the peptide on pIII; also called PP143; not shown: M13 phage coat protein pIII, mature (TVESC...)
Consider B6, for which the binding result (in the assay with biotinylated sEGFR-His6; with biotinylated sEGFR-MMB; in the assay with b-sEGFR-strep; in [4]) was “binds” throughout.

B7: S20 library phage hit SEQ ID NO: 45 (peptide)
chain: GGGDSCCSFLTDGTVVCSL
notes: as for B2
B7: the ELISA signal in assay [3] is 9540 units.

B8: phage P177 (pIX S16) (peptide)
peptide: GGGDACTMVFLWCSLGGGSGGSGG
modifications: disulfide 6-13
notes: Tested as whole phage, pIX phagemid display; also called PP177; not shown: M13 coat protein pIX (display carrier at the C end)
B8 yielded an ELISA signal in assay [5] of 8660 units.

B9: phage P178 (pIX S17) (peptide)
peptide: GGGRWCYFWWITICELGGGSGGSGG
modifications: disulfide 6-14
notes: Tested as whole phage, pIX phagemid display; also called PP178; not shown: M13 coat protein pIX (display carrier at the C end)
B9: the ELISA signal in assay [5] worked out at 7910 units.

B10: S20 library phage hit SEQ ID NO: 44 (peptide)
chain: GGGWMCFLEGYGASLMCQC
notes: as for B2
On to B10, for which the ELISA signal in assay [3] came out at 4800 units.

B11: S20 library phage hit SEQ ID NO: 49 (peptide)
chain: GGGLLCATTSFRDWFVCFT
notes: as for B2
Regarding B11, the ELISA signal in assay [3] worked out at 4510 units.

B12: S20 library phage hit SEQ ID NO: 43 (peptide)
chain: GGGPTCDSATRRVLTICAD
notes: as for B2
Regarding B12, the ELISA signal in assay [3] worked out at 5420 units.

B13: phage P146 (pIII CNL5) (peptide)
chain: AGTLCRSFFHPLCYAGG
notes: Tested as whole phage displaying the peptide on pIII; also called PP146; PHPEP146; not shown: M13 phage coat protein pIII, mature (TVESC...)
Take B13: the binding result (in the assay with biotinylated sEGFR-His6; with biotinylated sEGFR-MMB; in the assay with b-sEGFR-strep; in assay [4]) was “binds” throughout.

B14: phage P145 (pIII CNL5) (peptide)
chain: AGVLCHRYYHPICYTGG
notes: Tested as whole phage displaying the peptide on pIII; also called PP145; PHPEP145; not shown: M13 phage coat protein pIII, mature (TVESC...)
Take B14: the binding result (with biotinylated sEGFR-His6; with biotinylated sEGFR-MMB; with b-sEGFR-strep; in [4]) was “binds” each time.
